The record followed here is US20090118161A1 (BAYLOR COLLEGE OF MEDICINE, published 2009).

One may read the EC50 as the concentration at which the effect is half-maximal. In general, IC50 refers to the concentration that inhibits the measured activity by half.

Assay [1] deals with T1, recombinant VWF-A1 domain polypeptide (amino acids Q1238-P1471) (human, UniProt P04275 1238-1471).
T1 construct: range 1238-1471; Expressed in E. coli with an N-terminal His tag; also called A1 polypeptide; A1 protein; not shown: N-terminal His tag from the vector
Nature of the assay: ELISA, A2 on immobilized A1; apparent KD. In general terms: ELISA stands for enzyme-linked immunosorbent assay.

Assay [2] concerns the target T2, multimeric von Willebrand factor purified from plasma or cryoprecipitate (UniProt P04275 764-2813).
T2 construct: mature; Disulfide-linked multimer of many subunits; number of subunits not fixed; Glycosylated; also called VWF; full length VWF
Nature of the assay: binding of A2 to immobilized full length VWF; half-maximal binding.

Assay [3] deals with T2, multimeric von Willebrand factor …. As to the kind of experiment: binding of A2 to full length VWF; half-maximal binding.
Assay [4] concerns the target T1, recombinant VWF-A1 domain polypeptide …. Nature of the assay: binding of A2 to immobilized A1 domain polypeptide; half-maximal binding.
For assay [5] the target is unchanged. Nature of the assay: inhibition by A2 of binding of A1 domain (0.25 µM) to immobilized fixed platelets (GPIbα), static conditions.
Assay [6] addresses T3, recombinant human vimentin (human, UniProt P08670 1-466, limits assumed).
T3 construct: also called immobilized vimentin
As to the kind of experiment: ELISA, A2 on immobilized recombinant human vimentin, detected with Anti-A2 or VP-1.

Assay [7] addresses T2, multimeric von Willebrand factor …. As to the kind of experiment: ELISA, A2 on immobilized VWF; apparent KD.
Assay [8] addresses T1, recombinant VWF-A1 domain polypeptide …. Nature of the assay: binding of A2 to A1 domain polypeptide; half-maximal binding.
Assay [9] has as its target T4, immobilized human fibrinogen (human, UniProt P02671 20-629; P02675 31-491; P02679 27-437, limits assumed).
T4 sequence (looked up) 1: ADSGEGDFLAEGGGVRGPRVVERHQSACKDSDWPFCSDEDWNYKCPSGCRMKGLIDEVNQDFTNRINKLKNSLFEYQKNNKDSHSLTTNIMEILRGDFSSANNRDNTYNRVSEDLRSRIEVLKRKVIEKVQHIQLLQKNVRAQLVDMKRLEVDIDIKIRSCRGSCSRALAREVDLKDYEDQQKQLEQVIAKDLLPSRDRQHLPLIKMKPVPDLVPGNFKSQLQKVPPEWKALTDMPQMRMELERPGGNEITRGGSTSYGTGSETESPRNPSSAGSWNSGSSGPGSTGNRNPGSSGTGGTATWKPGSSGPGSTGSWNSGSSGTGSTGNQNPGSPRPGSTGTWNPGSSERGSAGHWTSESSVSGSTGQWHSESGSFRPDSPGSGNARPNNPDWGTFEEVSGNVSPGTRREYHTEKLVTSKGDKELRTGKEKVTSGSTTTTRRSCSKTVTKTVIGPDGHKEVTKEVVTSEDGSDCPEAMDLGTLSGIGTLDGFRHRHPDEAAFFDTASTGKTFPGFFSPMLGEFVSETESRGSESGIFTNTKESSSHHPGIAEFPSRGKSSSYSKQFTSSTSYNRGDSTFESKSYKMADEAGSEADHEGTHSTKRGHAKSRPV
T4 sequence (looked up) 2: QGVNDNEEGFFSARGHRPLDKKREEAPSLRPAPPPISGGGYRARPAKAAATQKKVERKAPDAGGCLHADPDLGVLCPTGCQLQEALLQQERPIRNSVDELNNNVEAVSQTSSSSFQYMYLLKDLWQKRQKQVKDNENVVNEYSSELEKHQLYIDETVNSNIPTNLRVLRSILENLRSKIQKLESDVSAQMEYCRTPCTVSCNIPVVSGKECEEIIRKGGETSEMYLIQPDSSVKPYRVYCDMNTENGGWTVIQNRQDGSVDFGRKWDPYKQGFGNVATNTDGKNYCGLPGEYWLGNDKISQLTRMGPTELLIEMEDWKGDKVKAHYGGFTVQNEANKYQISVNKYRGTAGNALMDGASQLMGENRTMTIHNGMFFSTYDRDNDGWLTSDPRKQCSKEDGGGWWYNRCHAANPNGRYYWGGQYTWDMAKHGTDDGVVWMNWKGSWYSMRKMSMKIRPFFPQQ
T4 sequence (looked up) 3: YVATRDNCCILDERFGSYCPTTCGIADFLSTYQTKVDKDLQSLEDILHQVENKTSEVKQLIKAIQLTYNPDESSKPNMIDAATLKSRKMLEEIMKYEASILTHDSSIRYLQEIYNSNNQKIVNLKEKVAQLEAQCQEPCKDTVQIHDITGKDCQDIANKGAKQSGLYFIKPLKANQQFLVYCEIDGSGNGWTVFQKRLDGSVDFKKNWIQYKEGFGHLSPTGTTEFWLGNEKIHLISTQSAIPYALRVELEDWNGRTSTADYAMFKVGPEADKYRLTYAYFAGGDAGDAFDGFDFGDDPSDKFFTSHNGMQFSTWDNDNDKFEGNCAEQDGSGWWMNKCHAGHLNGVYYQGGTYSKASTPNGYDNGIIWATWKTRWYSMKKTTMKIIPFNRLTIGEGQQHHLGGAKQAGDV
Nature of the assay: ELISA, increasing A2 on immobilized human fibrin(ogen), anti-His detection; half-maximal binding.

The target of assay [10] is T5, polymerized human fibrin (human, UniProt P02671 36-629; P02675 45-491; P02679 27-437, limits assumed).
T5 construct: Immobilized polymerized fibrin; preparation not described
T5 sequence (looked up) 1: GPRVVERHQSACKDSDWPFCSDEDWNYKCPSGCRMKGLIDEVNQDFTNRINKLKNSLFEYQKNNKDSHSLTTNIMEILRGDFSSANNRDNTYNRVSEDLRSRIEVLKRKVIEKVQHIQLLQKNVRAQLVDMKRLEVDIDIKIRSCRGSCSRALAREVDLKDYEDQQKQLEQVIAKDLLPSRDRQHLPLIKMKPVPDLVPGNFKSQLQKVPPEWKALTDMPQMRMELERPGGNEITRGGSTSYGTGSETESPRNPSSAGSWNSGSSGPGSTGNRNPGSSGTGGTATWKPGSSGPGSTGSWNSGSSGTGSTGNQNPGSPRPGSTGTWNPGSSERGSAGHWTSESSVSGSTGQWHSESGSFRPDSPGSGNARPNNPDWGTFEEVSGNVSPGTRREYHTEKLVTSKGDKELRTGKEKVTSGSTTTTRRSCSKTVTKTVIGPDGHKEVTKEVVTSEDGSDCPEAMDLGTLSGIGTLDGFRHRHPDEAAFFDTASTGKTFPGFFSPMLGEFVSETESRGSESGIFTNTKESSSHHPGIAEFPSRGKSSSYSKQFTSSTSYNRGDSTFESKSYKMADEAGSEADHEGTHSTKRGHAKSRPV
T5 sequence (looked up) 2: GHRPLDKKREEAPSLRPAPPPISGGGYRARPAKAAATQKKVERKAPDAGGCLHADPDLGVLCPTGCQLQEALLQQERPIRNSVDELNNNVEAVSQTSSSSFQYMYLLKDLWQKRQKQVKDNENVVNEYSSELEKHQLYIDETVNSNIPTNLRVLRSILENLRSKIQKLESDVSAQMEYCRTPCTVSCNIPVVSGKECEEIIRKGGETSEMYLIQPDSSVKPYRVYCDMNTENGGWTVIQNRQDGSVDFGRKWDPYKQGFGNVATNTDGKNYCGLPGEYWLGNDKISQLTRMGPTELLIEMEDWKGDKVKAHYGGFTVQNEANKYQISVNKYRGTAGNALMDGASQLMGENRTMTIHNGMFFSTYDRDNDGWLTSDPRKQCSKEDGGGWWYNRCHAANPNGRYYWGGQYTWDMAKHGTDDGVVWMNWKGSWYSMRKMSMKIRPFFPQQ
T5 sequence (looked up) 3: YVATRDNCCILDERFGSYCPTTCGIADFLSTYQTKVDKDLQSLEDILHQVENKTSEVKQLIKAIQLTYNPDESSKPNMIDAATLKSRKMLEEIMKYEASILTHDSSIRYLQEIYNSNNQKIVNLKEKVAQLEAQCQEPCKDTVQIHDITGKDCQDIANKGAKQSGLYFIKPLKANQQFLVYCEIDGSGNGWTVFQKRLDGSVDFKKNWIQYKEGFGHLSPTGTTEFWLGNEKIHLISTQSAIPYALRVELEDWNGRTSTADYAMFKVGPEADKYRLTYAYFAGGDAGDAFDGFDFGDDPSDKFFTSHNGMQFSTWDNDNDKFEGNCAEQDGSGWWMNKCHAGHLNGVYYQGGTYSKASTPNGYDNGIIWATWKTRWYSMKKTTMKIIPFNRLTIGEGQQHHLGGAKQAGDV
As to the kind of experiment: ELISA, increasing A2 on immobilized polymerized human fibrin, anti-His detection; half-maximal binding.

The target in assay [11] is T2, multimeric von Willebrand factor …. Nature of the assay: ELISA, increasing A2 on immobilized plasma VWF, anti-His detection; half-maximal binding.
Assay [12] has as its target T1, recombinant VWF-A1 domain polypeptide …. As to the kind of experiment: ELISA, increasing A2 on immobilized A1 polypeptide, Anti-A2 detection; half-maximal binding.
Assay [13] has as its target T3, recombinant human vimentin. Nature of the assay: ELISA, A2 fragments on immobilized vimentin.

T3 sequence (P08670 whole entry): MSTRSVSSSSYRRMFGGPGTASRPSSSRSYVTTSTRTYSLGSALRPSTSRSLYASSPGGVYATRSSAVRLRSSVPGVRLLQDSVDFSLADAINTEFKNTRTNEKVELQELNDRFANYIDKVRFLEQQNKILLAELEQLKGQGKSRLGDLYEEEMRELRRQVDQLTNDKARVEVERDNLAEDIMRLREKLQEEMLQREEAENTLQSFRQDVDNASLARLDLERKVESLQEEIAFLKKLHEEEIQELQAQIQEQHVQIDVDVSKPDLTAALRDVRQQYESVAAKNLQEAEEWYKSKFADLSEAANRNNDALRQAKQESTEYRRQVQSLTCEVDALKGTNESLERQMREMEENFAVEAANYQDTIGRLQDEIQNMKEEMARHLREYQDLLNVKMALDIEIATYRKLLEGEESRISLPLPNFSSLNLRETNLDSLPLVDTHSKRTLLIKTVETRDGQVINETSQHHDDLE

B1: recombinant VWF-A2 domain polypeptide (amino acids G1481-R1668) (other)
chain: GLLGVSTLGPKRNSMVLDVAFVLEGSDKIGEADFNRSKEFMEEVIQRMDVGQDSIHVTVLQYSYMVTVEYPFSEAQSKGDILQRVREIRYQGGNRTNTGLALRYLSDHSFLVSQGDREQAPNLVYMVTGNPASDEIKRLPGDIQVVPIGVGPNANVQELERIGWPNAPILIQDFETLPREAPDLVLQR
notes: Expressed in E. coli as a fusion protein with a His tag at the N terminus; monomeric on SDS-PAGE; also called A2 protein; VWF-A2 protein; not shown: N-terminal His tag from the vector
As for B1, the figures for the Kd in [1] and in [7] were approximately 50 nM and approximately 200 nM, respectively. The EC50 in assay [2] was determined as 190 nM; in assay [3] it was 160 nM; in assay [4], 65 nM; in [8], 60 nM; in assay [9] it was 150 nM; in assay [10], 150 nM. The figures for the EC50 in [11] and in [12] were approximately 200 nM and approximately 65 nM, respectively. Besides, in [5], the IC50 stood at 300 nM. Besides, the binding result in assay [6] was “binds”.

B2: N-terminal fragment polypeptide of A2 (A2 G1481-Y1605) (other)
chain: GLLGVSTLGPKRNSMVLDVAFVLEGSDKIGEADFNRSKEFMEEVIQRMDVGQDSIHVTVLQYSYMVTVEYPFSEAQSKGDILQRVREIRYQGGNRTNTGLALRYLSDHSFLVSQGDREQAPNLVY
notes: Expressed in bacteria; also called N-terminal (half) of the A2 domain of VWF
On to B2, for which, in assay [13], the binding result was “binds”.
